Reference: patent US20200199204A1 (UNITED STATES OF AMERICA AS REPRESENTED BY THE SECRETARY …, published 2020)

Tests used:
Experiment in all cases: cell-based or functional assay
[1] = target: HIV-1 Env of TRJO.58 (HIV-1)
[2] = target: HIV-1 Env of MB201 (HIV-1)
[3] = target: HIV-1 Env of DU172.17 (HIV-1)
[4] = target: HIV-1 Env of UG037.8 (HIV-1)
[5] = target: HIV-1 Env of C1080.c3 (HIV-1)
[6] = target: HIV-1 Env of 191821.E6.1 (HIV-1)
[7] = target: HIV-1 Env of TH976.17 (HIV-1)
[8] = target: HIV-1 Env of KER2018.11 (HIV-1)
[9] = target: HIV-1 Env of MB539.2B7 (HIV-1)
[10] = target: HIV-1 Env of THRO.18 (HIV-1)
[11] = target: HIV-1 Env of RHPA.7 (HIV-1)
[12] = target: HIV-1 Env of Q769.d22 (HIV-1)
[13] = target: HIV-1 Env of TRO.11 (HIV-1)
[14] = target: HIV-1 Env of 3016.V5.c36 (HIV-1)
[15] = target: HIV-1 Env of CAP256.PI (HIV-1)
[16] = target: HIV-1 Env of CAP45.G3 (HIV-1)
[17] = target: HIV-1 Env of CM244.ec1 (HIV-1)
[18] = target: HIV-1 Env of 6535.3 (HIV-1)
[19] = target: HIV-1 Env of Q842.d12 (HIV-1)
[20] = target: HIV-1 Env of RW020.2 (HIV-1)
[21] = target: HIV-1 Env of ZM214.15 (HIV-1)
[22] = target: HIV-1 Env of CAP244.D3 (HIV-1)
[23] = target: HIV-1 Env of ZM109.4 (HIV-1)
[24] = target: HIV-1 Env of Q259.d2.17 (HIV-1)
[25] = target: HIV-1 Env of Q23.17 (HIV-1)
[26] = target: HIV-1 Env of REJO.67 (HIV-1)
[27] = target: HIV-1 Env of CAP210.E8 (HIV-1)
[28] = target: HIV-1 Env of DU156.12 (HIV-1)
[29] = target: HIV-1 Env of CAP256.SU (HIV-1)
[30] = target: HIV-1 Env of Q461.e2 (HIV-1)
[31] = target: HIV-1 Env of DU422.01 (HIV-1)
[32] = target: HIV-1 Env of Q168.a2 (HIV-1)
[33] = target: HIV-1 Env of CNE3 (HIV-1)
[34] = target: HIV-1 Env of AC10.29 (HIV-1)
[35] = target: HIV-1 Env of 0260.v5.c36 (HIV-1)
[36] = target: HIV-1 Env of ZM135.10a (HIV-1)
[37] = target: HIV-1 Env of 6405.v4.c34 (HIV-1)
[38] = target: Env of SIVmac251.30 (SIV (printed as nonHIV))
[39] = target: HIV-1 Env of ZM53.12 (HIV-1)
[40] = target: HIV-1 Env of BG505.w6m (HIV-1)
[41] = target: HIV-1 Env of SC422.8 (HIV-1)
[42] = target: HIV-1 Env of QH0692.42 (HIV-1)
[43] = target: HIV-1 Env of WITO.33 (HIV-1)
[44] = target: HIV-1 Env of ZM197.7 (HIV-1)
[45] = target: HIV-1 Env of ZM233.6 (HIV-1)
[46] = target: HIV-1 Env of CAAN.A2 (HIV-1)
[47] = target: HIV-1 Env of KER2008.12 (HIV-1)
[48] = target: HIV-1 Env of 96ZM651.02 (HIV-1)
[49] = target: HIV-1 Env of PVO.04 (HIV-1)
[50] = target: HIV-1 Env of ZM249.1 (HIV-1)

B1: CAP256-VRC26.01 (antibody, V domains shown)
VH: EVQVVESGGGVVQPGRSLRLSCTASGFTFSNFAMGWVRQAPGKGLEWVAFISSDGSNKNYGDSVKGRFTISRDNSKNTVFLQMNSLRVEDTALYYCAKDVGDYKSDEWGTEYYDISISYPIQDPRAMVGAFDLWGQGTMVTVSP
VL: QSVLTQPPSVSAAPGQKVTISCSGSSSTIGNNYVSWYRLLPGTAPKLLIYKNDNRPSGIPDRFSGSKSGTSATLGISGLQTGDEADYYCGTWDTSLSGGGVFGTGTKVTVLG
neutralization IC50 [1]: > 50 µg/mL | neutralization IC50 [2]: > 50 µg/mL | neutralization IC50 [3]: > 50 µg/mL | neutralization IC50 [4]: > 50 µg/mL | neutralization IC50 [5]: > 50 µg/mL | neutralization IC50 [6]: > 50 µg/mL | neutralization IC50 [7]: > 50 µg/mL | neutralization IC50 [8]: 8.1 µg/mL | neutralization IC50 [9]: > 50 µg/mL | neutralization IC50 [10]: > 50 µg/mL | neutralization IC50 [11]: > 50 µg/mL | neutralization IC50 [12]: > 50 µg/mL | neutralization IC50 [13]: > 50 µg/mL | neutralization IC50 [14]: 9.63 µg/mL | neutralization IC50 [15]: > 50 µg/mL | neutralization IC50 [16]: > 50 µg/mL | neutralization IC50 [17]: 3.32 µg/mL | neutralization IC50 [18]: > 50 µg/mL | neutralization IC50 [19]: > 50 µg/mL | neutralization IC50 [20]: > 50 µg/mL | neutralization IC50 [21]: > 50 µg/mL | neutralization IC50 [22]: > 50 µg/mL | neutralization IC50 [23]: > 50 µg/mL | neutralization IC50 [24]: > 50 µg/mL | neutralization IC50 [25]: > 50 µg/mL | neutralization IC50 [26]: > 50 µg/mL | neutralization IC50 [27]: 0.217 µg/mL | neutralization IC50 [28]: > 50 µg/mL | neutralization IC50 [29]: 0.14 µg/mL | neutralization IC50 [30]: > 50 µg/mL | neutralization IC50 [31]: > 50 µg/mL | neutralization IC50 [32]: > 50 µg/mL | neutralization IC50 [33]: > 50 µg/mL | neutralization IC50 [34]: > 50 µg/mL | neutralization IC50 [35]: > 50 µg/mL | neutralization IC50 [36]: > 50 µg/mL | neutralization IC50 [37]: > 50 µg/mL | neutralization IC50 [38]: > 50 µg/mL | neutralization IC50 [39]: 0.103 µg/mL | neutralization IC50 [40]: > 50 µg/mL | neutralization IC50 [41]: > 50 µg/mL | neutralization IC50 [42]: > 50 µg/mL | neutralization IC50 [43]: > 50 µg/mL | neutralization IC50 [44]: 10.4 µg/mL | neutralization IC50 [45]: > 50 µg/mL | neutralization IC50 [46]: > 50 µg/mL | neutralization IC50 [47]: 30.9 µg/mL | neutralization IC50 [48]: > 50 µg/mL | neutralization IC50 [49]: > 50 µg/mL | neutralization IC50 [50]: > 50 µg/mL
